Assay results: PMC10541312 (The Journal of Experimental Medicine, 2023)
Positions count from the first letter of the chain named. In names and notes the source's numbering stands.

Experiments:
Assay in all cases: BLI; biotinylated CD123 ECD wt and variants captured on streptavidin biosensors; IL-3 as analyte, 500 to 7.8 nM in PBS pH7.4; association 300 s; steady-state analysis
Conditions in all cases: both partners purified
[1] = biological target: T1, CD123 E51A ECD (amino acids 19–305), soluble protein (human, UniProt P26951 19-305, E51A, biotinylated (Biotinylation kit Type B) in the IL-3 BLI only)
T1 construct: human CD123 extracellular domain (ECD; amino acids 19–305); source: produced and purified by Icosagen
T1 sequence (looked up): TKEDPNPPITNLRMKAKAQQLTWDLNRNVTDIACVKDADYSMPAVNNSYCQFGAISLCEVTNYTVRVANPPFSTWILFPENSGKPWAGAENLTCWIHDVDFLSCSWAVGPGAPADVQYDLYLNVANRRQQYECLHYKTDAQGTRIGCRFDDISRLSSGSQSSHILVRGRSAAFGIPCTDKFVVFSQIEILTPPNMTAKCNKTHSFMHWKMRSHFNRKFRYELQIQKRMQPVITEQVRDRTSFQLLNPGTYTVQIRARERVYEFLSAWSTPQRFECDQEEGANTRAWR

[2] = biological target: T2, CD123 S59Y ECD (amino acids 19–305), soluble protein (human, UniProt P26951 19-305, S59Y, biotinylated (Biotinylation kit Type B) in the IL-3 BLI only)
T2 construct: human CD123 extracellular domain (ECD; amino acids 19–305); source: produced and purified by Icosagen
T2 sequence (looked up): T1 sequence (looked up) with A33E, S41Y

[3] = biological target: T3, CD123 wt ECD (amino acids 19–305), soluble protein (human, UniProt P26951 19-305, biotinylated (Biotinylation kit Type B) in the IL-3 BLI only)
T3 construct: human CD123 extracellular domain (ECD; amino acids 19–305); also called wt CD123; source: produced and purified by Icosagen
T3 sequence (looked up): T1 sequence (looked up) with A33E

[4] = biological target: T4, CD123 R84E ECD (amino acids 19–305), soluble protein (human, UniProt P26951 19-305, R84E, biotinylated (Biotinylation kit Type B) in the IL-3 BLI only)
T4 construct: human CD123 extracellular domain (ECD; amino acids 19–305); source: produced and purified by Icosagen
T4 sequence (looked up): T1 sequence (looked up) with A33E, R66E

[5] = biological target: T5, CD123 S59E ECD (amino acids 19–305), soluble protein (human, UniProt P26951 19-305, S59E, biotinylated (Biotinylation kit Type B) in the IL-3 BLI only)
T5 construct: human CD123 extracellular domain (ECD; amino acids 19–305); source: produced and purified by Icosagen
T5 sequence (looked up): T1 sequence (looked up) with A33E, S41E

[6] = biological target: T6, CD123 S59R ECD (amino acids 19–305), soluble protein (human, UniProt P26951 19-305, S59R, biotinylated (Biotinylation kit Type B) in the IL-3 BLI only)
T6 construct: human CD123 extracellular domain (ECD; amino acids 19–305); source: produced and purified by Icosagen
T6 sequence (looked up): T1 sequence (looked up) with A33E, S41R

[7] = biological target: T7, CD123 R84Q ECD (amino acids 19–305), soluble protein (human, UniProt P26951 19-305, R84Q, biotinylated (Biotinylation kit Type B) in the IL-3 BLI only)
T7 construct: human CD123 extracellular domain (ECD; amino acids 19–305); source: produced and purified by Icosagen
T7 sequence (looked up): T1 sequence (looked up) with A33E, R66Q

[8] = biological target: T8, CD123 E51Q ECD (amino acids 19–305), soluble protein (human, UniProt P26951 19-305, E51Q, biotinylated (Biotinylation kit Type B) in the IL-3 BLI only)
T8 construct: human CD123 extracellular domain (ECD; amino acids 19–305); source: produced and purified by Icosagen
T8 sequence (looked up): T1 sequence (looked up) with A33Q

[9] = biological target: T9, CD123 S59F ECD (amino acids 19–305), soluble protein (human, UniProt P26951 19-305, S59F, biotinylated (Biotinylation kit Type B) in the IL-3 BLI only)
T9 construct: human CD123 extracellular domain (ECD; amino acids 19–305); source: produced and purified by Icosagen
T9 sequence (looked up): T1 sequence (looked up) with A33E, S41F

[10] = biological target: T10, CD123 E51K ECD (amino acids 19–305), soluble protein (human, UniProt P26951 19-305, E51K, biotinylated (Biotinylation kit Type B) in the IL-3 BLI only)
T10 construct: human CD123 extracellular domain (ECD; amino acids 19–305); source: produced and purified by Icosagen
T10 sequence (looked up): T1 sequence (looked up) with A33K

[11] = biological target: T11, CD123 E51T ECD (amino acids 19–305), soluble protein (human, UniProt P26951 19-305, E51T, biotinylated (Biotinylation kit Type B) in the IL-3 BLI only)
T11 construct: human CD123 extracellular domain (ECD; amino acids 19–305); source: produced and purified by Icosagen
T11 sequence (looked up): T1 sequence (looked up) with A33T

[12] = biological target: T12, CD123 S59P ECD (amino acids 19–305), soluble protein (human, UniProt P26951 19-305, S59P, biotinylated (Biotinylation kit Type B) in the IL-3 BLI only)
T12 construct: human CD123 extracellular domain (ECD; amino acids 19–305); source: produced and purified by Icosagen
T12 sequence (looked up): T1 sequence (looked up) with A33E, S41P

[13] = biological target: T13, CD123 R84T ECD (amino acids 19–305), soluble protein (human, UniProt P26951 19-305, R84T, biotinylated (Biotinylation kit Type B) in the IL-3 BLI only)
T13 construct: human CD123 extracellular domain (ECD; amino acids 19–305); source: produced and purified by Icosagen
T13 sequence (looked up): T1 sequence (looked up) with A33E, R66T

Measured: binding result

B1: IL-3 (ligand, human, UniProt P08700 20-152, looked up)
chain: APMTQTTPLKTSWVNCSNMIDEIITHLKQPPLPLLDFNNLNGEDQDILMENNLRRPNLEAFNRAVKSLQNASAIESILKNLLPCLPLATAAPTRHPIHIKDGDWNEFRRKLTFYLKTLENAQAQQTTLSLAIF
notes: human interleukin-3, recombinant, Sino Biological PN 11858-H08H; also called interleukin-3; human IL-3; source: bought: Sino Biological (PN 11858-H08H)
binds: all assays above
